Tests used:
HLA-A*02:03 = experiment: IEDB peptide-MHC binding, purified MHC/direct/fluorescence; filed as Kd, often an IC50 or EC50 that approximates it; ≥ and ≤ were set here for values at or beyond the usual limits of such assays
HLA-A*02:11 = experiment: as above
HLA-A*02:12 = experiment: as above
HLA-A*02:16 = experiment: as above
HLA-A*02:19 = experiment: as above
HLA-A*03:01 = experiment: as above
HLA-A*23:01 = experiment: as above
HLA-A*24:03 = experiment: as above
HLA-A*29:02 = experiment: as above
HLA-A*68:02 = experiment: as above
HLA-B*07:02 = experiment: as above
HLA-A*02:01 [1] = experiment: IEDB peptide-MHC binding, purified MHC/competitive/fluorescence; filed as Kd, often an IC50 or EC50 that approximates it; ≥ and ≤ were set here for values at or beyond the usual limits of such assays
HLA-A*26:01 [2] = experiment: as above
HLA-A*69:01 [3] = experiment: as above
HLA-B*15:01 [4] = experiment: as above
HLA-B*15:17 [5] = experiment: as above
HLA-B*18:01 [6] = experiment: as above
HLA-B*27:03 = experiment: as above
HLA-B*39:01 = experiment: as above
HLA-B*46:01 [7] = experiment: as above
HLA-B*51:01 = experiment: as above
HLA-B*57:01 [8] = experiment: as above
HLA-B*15:01 [9] = experiment: IEDB peptide-MHC binding, purified MHC/direct/fluorescence; filed as Kd, often an IC50 or EC50 that approximates it; ≥ and ≤ were set here for values at or beyond the usual limits of such assays
HLA-A*01:01 = experiment: as above; conditions: source organism: Influenza A virus (A/Wisconsin/4755/1994(H1N1))
HLA-A*02:01 [10] = experiment: as above; conditions: source organism: Influenza A virus (A/Wisconsin/4755/1994(H1N1))
HLA-A*11:01 = experiment: as above; conditions: source organism: Influenza A virus (A/Wisconsin/4755/1994(H1N1))
HLA-A*26:01 [11] = experiment: as above; conditions: source organism: Influenza A virus H3N2
HLA-A*26:02 = experiment: as above; conditions: source organism: Influenza A virus H3N2
HLA-A*31:01 = experiment: as above; conditions: source organism: Influenza A virus (A/Wisconsin/4755/1994(H1N1))
HLA-A*69:01 [12] = experiment: as above; conditions: source organism: Influenza A virus (A/Wisconsin/4755/1994(H1N1))
HLA-B*08:01 = experiment: as above; conditions: source organism: Influenza A virus (A/seal/Mass/1/1980(H7N7))
HLA-B*15:17 [13] = experiment: as above; conditions: source organism: Influenza A virus (A/Wisconsin/4755/1994(H1N1))
HLA-B*18:01 [14] = experiment: as above; conditions: source organism: Influenza A virus (A/Wisconsin/4755/1994(H1N1))
HLA-B*27:05 = experiment: as above; conditions: source organism: Influenza A virus (A/Wisconsin/4755/1994(H1N1))
HLA-B*40:01 = experiment: as above; conditions: source organism: Influenza A virus (A/Wisconsin/4755/1994(H1N1))
HLA-B*46:01 [15] = experiment: as above; conditions: source organism: Influenza A virus (A/Wisconsin/4755/1994(H1N1))
HLA-B*48:01 = experiment: as above; conditions: source organism: Influenza A virus (A/Wisconsin/4755/1994(H1N1))
HLA-B*57:01 [16] = experiment: as above; conditions: source organism: Influenza A virus (A/Wisconsin/4755/1994(H1N1))
HLA-B*58:01 = experiment: as above; conditions: source organism: Influenza A virus (A/Wisconsin/4755/1994(H1N1))
[17] = source organism: Zaire ebolavirus
[18] = source organism: Sudan ebolavirus - Maleo (1979)
[19] = source organism: Reston ebolavirus
[20] = source organism: Ravn virus - Ravn, Kenya, 1987
[21] = source organism: Influenza A virus (A/Wisconsin/4755/1994(H1N1))

In the case of TPSHYSGNI, the Kd (HLA-A*02:03; [17]) is reported as ≥ 20 µM, the Kd (HLA-A*02:11; [17]) is reported as ≥ 20 µM and the Kd (HLA-A*02:12; [17]) is reported as ≥ 20 µM. For the same sequence, the Kd (HLA-A*02:16; [17]) was ≥ 20 µM, the Kd (HLA-A*02:19; [17]) was ≥ 20 µM and the Kd (HLA-A*03:01; [17]) was ≥ 20 µM. The Kd (HLA-A*23:01; [17]) was ≥ 20 µM, the Kd (HLA-A*24:03; [17]) was ≥ 20 µM and the Kd (HLA-A*29:02; [17]) was ≥ 20 µM. For the same sequence, the Kd (HLA-A*68:02; [17]) was ≥ 20 µM, the Kd (HLA-B*07:02; [18]) was 0.442 µM and the Kd (HLA-A*02:01 [1]; [17]) was ≥ 20 µM. The Kd (HLA-A*26:01 [2]; [17]) was ≥ 20 µM, the Kd (HLA-A*69:01 [3]; [17]) was ≥ 20 µM and the Kd (HLA-B*15:01 [4]; [17]) was ≥ 20 µM. For the same sequence, the Kd (HLA-B*15:17 [5]; [17]) was ≥ 20 µM, the Kd (HLA-B*18:01 [6]; [17]) was ≥ 20 µM and the Kd (HLA-B*27:03; [17]) was ≥ 20 µM. The Kd (HLA-B*39:01; [17]) was ≥ 20 µM, the Kd (HLA-B*46:01 [7]; [17]) was ≥ 20 µM and the Kd (HLA-B*51:01; [17]) was ≥ 20 µM. For the same sequence, the Kd (HLA-B*57:01 [8]; [17]) was ≥ 20 µM.
For LPRERFRKT, the Kd (HLA-A*02:03; [19]) was ≥ 20 µM, the Kd (HLA-A*02:11; [19]) was ≥ 20 µM and the Kd (HLA-A*02:12; [19]) was ≥ 20 µM. The Kd (HLA-A*02:16; [19]) was ≥ 20 µM, the Kd (HLA-A*02:19; [19]) was ≥ 20 µM and the Kd (HLA-A*03:01; [19]) was ≥ 20 µM. The Kd (HLA-A*23:01; [19]) was ≥ 20 µM, the Kd (HLA-A*24:03; [19]) was ≥ 20 µM and the Kd (HLA-A*29:02; [19]) was ≥ 20 µM. The Kd (HLA-A*68:02; [19]) was ≥ 20 µM, the Kd (HLA-B*07:02; source organism: Tai Forest virus - Cote d'Ivoire, Cote d'Ivoire, 1994) was 0.179 µM and the Kd (HLA-A*02:01 [1]; [19]) was ≥ 20 µM. For the same sequence, the Kd (HLA-A*26:01 [2]; [19]) was ≥ 20 µM, the Kd (HLA-A*69:01 [3]; [19]) was ≥ 20 µM and the Kd (HLA-B*15:01 [4]; [19]) was ≥ 20 µM. For the same sequence, the Kd (HLA-B*15:17 [5]; [19]) was ≥ 20 µM, the Kd (HLA-B*18:01 [6]; [19]) was ≥ 20 µM and the Kd (HLA-B*27:03; [19]) was ≥ 20 µM. For the same sequence, the Kd (HLA-B*39:01; [19]) was ≥ 20 µM, the Kd (HLA-B*46:01 [7]; [19]) was ≥ 20 µM and the Kd (HLA-B*51:01; [19]) was ≥ 20 µM. For the same sequence, the Kd (HLA-B*57:01 [8]; [19]) was ≥ 20 µM.
With PQVLGGLSF the Kd (HLA-A*02:03; [20]) was ≥ 20 µM, the Kd (HLA-A*02:11; [20]) was ≥ 20 µM and the Kd (HLA-A*02:12; [20]) was ≥ 20 µM. For the same sequence, the Kd (HLA-A*02:16; [20]) was ≥ 20 µM, the Kd (HLA-A*02:19; [20]) was ≥ 20 µM and the Kd (HLA-A*03:01; [20]) was ≥ 20 µM. For the same sequence, the Kd (HLA-A*23:01; [20]) was ≥ 20 µM, the Kd (HLA-A*24:03; [20]) was ≥ 20 µM and the Kd (HLA-A*68:02; [20]) was ≥ 20 µM. For the same sequence, the Kd (HLA-B*15:01 [9]; [18]) was 0.475 µM, the Kd (HLA-A*02:01 [1]; [17]) was ≥ 20 µM and the Kd (HLA-A*26:01 [2]; [17]) was ≥ 20 µM. For the same sequence, the Kd (HLA-A*69:01 [3]; [17]) was ≥ 20 µM, the Kd (HLA-B*15:17 [5]; [17]) was ≥ 20 µM and the Kd (HLA-B*18:01 [6]; [17]) was ≥ 20 µM. For the same sequence, the Kd (HLA-B*27:03; [17]) was ≥ 20 µM, the Kd (HLA-B*39:01; [17]) was ≥ 20 µM and the Kd (HLA-B*46:01 [7]; [17]) was ≥ 20 µM. For the same sequence, the Kd (HLA-B*51:01; [17]) was ≥ 20 µM and the Kd (HLA-B*57:01 [8]; [17]) was ≥ 20 µM.
For DPKKTGGPI, the Kd (HLA-A*01:01) was ≥ 20 µM, the Kd (HLA-A*02:01 [10]) was ≥ 20 µM and the Kd (HLA-A*03:01; [21]) was ≥ 20 µM. The Kd (HLA-A*11:01) was ≥ 20 µM, the Kd (HLA-A*26:01 [11]) was ≥ 20 µM and the Kd (HLA-A*26:02) was ≥ 20 µM. The Kd (HLA-A*31:01) was ≥ 20 µM, the Kd (HLA-A*68:02; [21]) was ≥ 20 µM and the Kd (HLA-A*69:01 [12]) was ≥ 20 µM. The Kd (HLA-B*07:02; source organism: Influenza A virus (A/seal/Mass/1/1980(H7N7))) was 0.0849 µM, the Kd (HLA-B*08:01) was ≥ 20 µM and the Kd (HLA-B*15:01 [9]; [21]) was ≥ 20 µM. For the same sequence, the Kd (HLA-B*15:17 [13]) was ≥ 20 µM, the Kd (HLA-B*18:01 [14]) was ≥ 20 µM and the Kd (HLA-B*27:05) was ≥ 20 µM. The Kd (HLA-B*40:01) was ≥ 20 µM, the Kd (HLA-B*46:01 [15]) was ≥ 20 µM and the Kd (HLA-B*48:01) was ≥ 20 µM. For the same sequence, the Kd (HLA-B*57:01 [16]) was ≥ 20 µM and the Kd (HLA-B*58:01) was ≥ 20 µM.
